According to patent US20250043302A1, “MUTATED HYDROXYPHENYLPYRUVATE DIOXYGENASE POLYPEPTIDE, AND CODING GENE AND USE THEREOF” (BEIJING DABEINONG BIOTECHNOLOGY CO., LTD., priority 2021, published 2025):
Substitutions are numbered along the chain they refer to. Names and notes keep the numbering of the source.

B1: HvHPPD-02: nucleotide sequence encoding wild-type Hordeum vulgare HPPD; vector DBN11762 (nucleic acid)
DNA: ATGCCGCCGACGCCCACCACCCCAGCAGCTACCGGAGCTGCGGCTGCAGTAACCCCTGAGCATGCTCGGCCCCACAGGATGGTGAGGTTTAATCCAAGATCAGATCGTTTTCATACACTCTCGTTCCACCATGTTGAGTTCTGGTGCGCCGACGCGGCTTCAGCGGCCGGGAGGTTCGCCTTCGCGCTGGGGGCCCCTCTTGCCGCGCGTAGTGATTTGTCTACTGGGAATTCAGCGCACGCGTCCCAGCTTCTCCGAAGCGGCAGTCTCGCCTTTCTCTTCACTGCACCATATGCAAATGGATGTGATGCAGCAACTGCTTCCCTGCCGAGCTTTTCTGCGGATGCCGCGAGGCGATTCAGTGCTGACCATGGGATCGCCGTCCGGTCAGTTGCTCTTAGAGTGGCTGATGCTGCTGAGGCATTCAGGGCTTCAAGGCGTCGTGGTGCACGCCCGGCGTTTGCCCCGGTTGATCTTGGGCGGGGGTTTGCTTTTGCAGAGGTGGAGCTGTACGGCGACGTGGTGCTCCGATTTGTTTCTCACCCGGACGGCACTGATGTGCCCTTCTTGCCAGGATTTGAAGGTGTGACCAACCCTGATGCCGTGGATTATGGACTCACAAGATTTGATCATGTGGTTGGCAATGTTCCTGAATTGGCACCTGCTGCCGCTTACATCGCAGGTTTTACTGGCTTCCATGAATTTGCTGAATTCACGGCGGAGGATGTTGGTACAACTGAGTCAGGGCTGAACAGTGTTGTTTTAGCCAACAACTCAGAAGGAGTTCTCCTTCCCTTGAATGAACCTGTTCATGGAACCAAGCGCCGCTCCCAAATTCAAACATTTCTTGAGCACCACGGCGGCCCTGGTGTTCAACATATTGCTGTCGCCTCTAGCGACGTCCTGCGTACATTACGCAAGATGAGGGCTCGGTCCGCAATGGGTGGTTTCGACTTCCTCCCTCCACCATTGCCAAAATATTATGAAGGCGTCAGAAGACTTGCAGGAGATGTCCTCTCTGAAGCTCAGATCAAGGAGTGCCAAGAACTTGGCGTCTTGGTTGATAGAGATGACCAAGGAGTACTTCTGCAGATATTTACAAAACCCGTTGGTGACAGGCCAACTCTTTTCCTGGAGATGATTCAGAGAATTGGCTGCATGGAGAAAGATGAAAGAGGCGAGGAGTACCAGAAGGGTGGTTGTGGAGGCTTTGGAAAAGGAAACTTCTCAGAGCTGTTCAAGTCCATAGAAGATTACGAGAAAAGTCTAGAAGCCAAGCAGTCTGCTGCAGTGCAAGGTTCCTGA
modifications: HvHPPD-02 Nucleotide Sequence
notes: vector DBN11762
B2: HvHPPDm-F372A-F383W-02: nucleotide sequence encoding Hordeum vulgare HPPD with F372A+F383W; vector DBN11765 (nucleic acid)
DNA: B1 DNA with T1096G, T1097C, T1098C, T1130G, C1131G
modifications: HvHPPDm-F372A-F383W-02 Nucleotide Sequence
notes: vector DBN11765

Legend:
Assay type in all cases: in vivo
[1] = test system: Arabidopsis thaliana T1 plants; assay: Isoxaflutole tolerance of transgenic Arabidopsis thaliana T1 plants (spray, bleached leaf area grade, damage score); set-up: Scores (pesticide damage): scale not given here; details: spray, Arabidopsis thaliana T1 plants; for Classification and statistics of the grade of pesticide damage: Grade 0 (number of plants) / Classification and statistics of the grade of pesticide damage: Grade 1 (number of plants) / Classification and statistics of the grade of pesticide damage: Grade 2 (number of plants) / Classification and statistics of the grade of pesticide damage: Grade 3 (number of plants): 16 plants
Procedure, shortened: (§1)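 T1 transformants selected by glufosinate; 18-day-old plants, with empty-vector and wild-type controls, sprayed with topramezone (25–200 g ai/ha), isoxaflutole (35–280 g ai/ha) or mesotrione (52.5–420 g ai/ha), water as 0×. Bleached leaf area fraction scored at 7 DAT as grades 0–3.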

[2] = test system: Arabidopsis thaliana T1 plants; assay: Topramezone tolerance of transgenic Arabidopsis thaliana T1 plants (spray, bleached leaf area grade, damage score); details: 7 DAT, Table 4; for Classification and statistics of the grade of pesticide damage: Grade 0 / Classification and statistics of the grade of pesticide damage: Grade 1 / Classification and statistics of the grade of pesticide damage: Grade 2 / Classification and statistics of the grade of pesticide damage: Grade 3: number of plants; for Scores: pesticide damage score 0-100
Procedure, shortened: as §1

[3] = test system: Arabidopsis thaliana T1 plants; assay: Mesotrione tolerance of transgenic Arabidopsis thaliana T1 plants (spray, bleached leaf area grade, damage score); set-up: Scores: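 damage score 0-100 computed as Σ(N×S)/(T×M)×100 over grades 0-3 with higher meaning more damage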; details: Arabidopsis thaliana T1 plants; for Grade 0 (classification and statistics of the grade of pesticide damage; number of plants) / Grade 1 (classification and statistics of the grade of pesticide damage; number of plants) / Grade 2 (classification and statistics of the grade of pesticide damage; number of plants) / Grade 3 (classification and statistics of the grade of pesticide damage; number of plants): 16 plants
Procedure, shortened: as §1

[4] = isoxaflutole 35 g ai/ha (0.5x field concentration)
[5] = isoxaflutole 70 g ai/ha (1x field concentration)

Row | Molecule | Resistance evaluation [1, 4] | Scores (pesticide damage) [1, 4] | Classification and statistics of the grade of pesticide damage: Grade 0 (number of plants) [1, 4] | Classification and statistics of the grade of pesticide damage: Grade 1 (number of plants) [1, 4] | Classification and statistics of the grade of pesticide damage: Grade 2 (number of plants) [1, 4] | Classification and statistics of the grade of pesticide damage: Grade 3 (number of plants) [1, 4] | Resistance evaluation [1, 5] | Scores (pesticide damage) [1, 5] | Classification and statistics of the grade of pesticide damage: Grade 0 (number of plants) [1, 5] | Classification and statistics of the grade of pesticide damage: Grade 1 (number of plants) [1, 5] | Classification and statistics of the grade of pesticide damage: Grade 2 (number of plants) [1, 5] | Classification and statistics of the grade of pesticide damage: Grade 3 (number of plants) [1, 5] | Classification and statistics of the grade of pesticide damage: Grade 0 ([2]; topramezone 25 g ai/ha (1×)) | Classification and statistics of the grade of pesticide damage: Grade 1 ([2]; topramezone 25 g ai/ha (1×)) | Classification and statistics of the grade of pesticide damage: Grade 2 ([2]; topramezone 25 g ai/ha (1×)) | Classification and statistics of the grade of pesticide damage: Grade 3 ([2]; topramezone 25 g ai/ha (1×)) | Classification and statistics of the grade of pesticide damage: Grade 0 ([2]; topramezone 100 g ai/ha (4×)) | Classification and statistics of the grade of pesticide damage: Grade 1 ([2]; topramezone 100 g ai/ha (4×)) | Classification and statistics of the grade of pesticide damage: Grade 2 ([2]; topramezone 100 g ai/ha (4×)) | Classification and statistics of the grade of pesticide damage: Grade 3 ([2]; topramezone 100 g ai/ha (4×)) | further results
1 | B1 | Non-resistant | 100 | 0 | 0 | 0 | 16 | Non-resistant | 100 | 0 | 0 | 0 | 16 | 0 | 0 | 0 | 16 | 0 | 0 | 0 | 16 | Scores ([2]; topramezone 25 g ai/ha (1×)): 100; Scores ([2]; topramezone 100 g ai/ha (4×)): 100; Resistance evaluation ([2]; topramezone 25 g ai/ha (1×)): non-resistant (non-resistant plants (scores 68-100)); Resistance evaluation ([2]; topramezone 100 g ai/ha (4×)): non-resistant (non-resistant plants (scores 68-100)); Resistance evaluation ([3]; mesotrione 52.5 g ai/ha): Non-resistant; Scores ([3]; mesotrione 52.5 g ai/ha): 100; Grade 0 (classification and statistics of the grade of pesticide damage; number of plants) ([3]; mesotrione 52.5 g ai/ha): 0; Grade 1 (classification and statistics of the grade of pesticide damage; number of plants) ([3]; mesotrione 52.5 g ai/ha): 0; Grade 2 (classification and statistics of the grade of pesticide damage; number of plants) ([3]; mesotrione 52.5 g ai/ha): 0; Grade 3 (classification and statistics of the grade of pesticide damage; number of plants) ([3]; mesotrione 52.5 g ai/ha): 16; Resistance evaluation ([3]; mesotrione 105 g ai/ha): Non-resistant; Scores ([3]; mesotrione 105 g ai/ha): 100; Grade 0 (classification and statistics of the grade of pesticide damage; number of plants) ([3]; mesotrione 105 g ai/ha): 0; Grade 1 (classification and statistics of the grade of pesticide damage; number of plants) ([3]; mesotrione 105 g ai/ha): 0; Grade 2 (classification and statistics of the grade of pesticide damage; number of plants) ([3]; mesotrione 105 g ai/ha): 0; Grade 3 (classification and statistics of the grade of pesticide damage; number of plants) ([3]; mesotrione 105 g ai/ha): 16
2 | B2 | Moderately | 25 | 4 | 12 | 0 | 0 | Moderately | 33 | 1 | 14 | 1 | 0 | 16 | 0 | 0 | 0 | 10 | 6 | 0 | 0 | Scores ([2]; topramezone 25 g ai/ha (1×)): 0; Scores ([2]; topramezone 100 g ai/ha (4×)): 13; Resistance evaluation ([2]; topramezone 25 g ai/ha (1×)): highly; Resistance evaluation ([2]; topramezone 100 g ai/ha (4×)): highly; Resistance evaluation ([3]; mesotrione 52.5 g ai/ha): Highly resistant; Scores ([3]; mesotrione 52.5 g ai/ha): 8; Grade 0 (classification and statistics of the grade of pesticide damage; number of plants) ([3]; mesotrione 52.5 g ai/ha): 12; Grade 1 (classification and statistics of the grade of pesticide damage; number of plants) ([3]; mesotrione 52.5 g ai/ha): 4; Grade 2 (classification and statistics of the grade of pesticide damage; number of plants) ([3]; mesotrione 52.5 g ai/ha): 0; Grade 3 (classification and statistics of the grade of pesticide damage; number of plants) ([3]; mesotrione 52.5 g ai/ha): 0; Resistance evaluation ([3]; mesotrione 105 g ai/ha): Moderately; Scores ([3]; mesotrione 105 g ai/ha): 29; Grade 0 (classification and statistics of the grade of pesticide damage; number of plants) ([3]; mesotrione 105 g ai/ha): 2; Grade 1 (classification and statistics of the grade of pesticide damage; number of plants) ([3]; mesotrione 105 g ai/ha): 14; Grade 2 (classification and statistics of the grade of pesticide damage; number of plants) ([3]; mesotrione 105 g ai/ha): 0; Grade 3 (classification and statistics of the grade of pesticide damage; number of plants) ([3]; mesotrione 105 g ai/ha): 0
